Results taken from patent publication US20250011456A1, “ANTIBODIES AGAINST CD14 AND USES THEREOF” (Villanelle Life Science Inc, priority 2023, published 2025).
Residue numbers refer to the chain shown, from its start.

T1: recombinant human CD14 (B294801, histidine tagged) (Homo sapiens, UniProt P08571)
T1 construct: His; purchased Shanghai BaiYing Biotechnology Co., Ltd B294801 (Batch number 20200518A22)
T1 sequence (P08571 20-345): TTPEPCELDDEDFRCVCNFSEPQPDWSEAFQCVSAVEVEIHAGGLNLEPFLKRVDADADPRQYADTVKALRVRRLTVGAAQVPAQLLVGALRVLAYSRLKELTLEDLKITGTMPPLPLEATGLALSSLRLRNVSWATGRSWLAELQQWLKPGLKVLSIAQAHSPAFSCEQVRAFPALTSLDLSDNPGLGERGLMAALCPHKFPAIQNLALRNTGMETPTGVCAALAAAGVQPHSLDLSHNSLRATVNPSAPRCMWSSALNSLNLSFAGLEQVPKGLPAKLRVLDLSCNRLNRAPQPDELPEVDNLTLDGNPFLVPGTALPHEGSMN

B1: D6DD3D005: humanized anti-CD14 antibody; VH SEQ ID NO: 17, VL SEQ ID NO: 19 (antibody, V domains shown)
VH: QVQLQESGPGLVKPSETLSLTCTVSGYSITSDSAWNWIRQPPGKGLEWIGYISYSGSTSYNPSLKSRVTISRDTSKNQFSLKLSSVTAADTAVYYCVRGLRFAYWGQGTLVTVSS
VL: EIVLTQSPATLSLSPGERATLSCRASESVDSYVNSFLHWYQQKPGQAPRLLIYRASNLQSGIPARFSGSGSRTDFTLTISSLEPEDVAVYYCQQSNEDPYTFGQGTKLEIK
B2: D6DD3D016: humanized anti-CD14 antibody; VH SEQ ID NO: 61, VL SEQ ID NO: 63 (antibody, V domains shown)
VH: B1 VH with E16Q
VL: DIQLTQSPSSLSASVGDRVTITCRASESVDSYVNSFLHWYQQKPGKAPKLLIYRASNLQSGVPSRFSGSGSRTDFTLTISSLQPEDVATYYCQQSNEDPYTFGQGTKLEIK
B3: D6DD3D015: humanized anti-CD14 antibody; VH SEQ ID NO: 57, VL SEQ ID NO: 59 (antibody, V domains shown)
VH: B1 VH
VL: B2 VL
B4: D6DD3D008: humanized anti-CD14 antibody; VH SEQ ID NO: 29, VL SEQ ID NO: 31 (antibody, V domains shown)
VH: B1 VH with Y27G, T30S
VL: DIVLTQSPDSLAVSLGERATINCRASESVDSYVNSFLHWYQQKPGQPPKLLIYRASNLQSGVPDRFSGSGSRTDFTLTISSLQAEDVAVYYCQQSNEDPYTFGQGTKLEIK
B5: D6DD3D014: humanized anti-CD14 antibody; VH SEQ ID NO: 53, VL SEQ ID NO: 55 (antibody, V domains shown)
VH: B1 VH with V2L, Y27G, T30S
VL: B2 VL
B6: D6DD3D006: humanized anti-CD14 antibody; VH SEQ ID NO: 21, VL SEQ ID NO: 23 (antibody, V domains shown)
VH: B1 VH with E16Q
VL: B1 VL
B7: D6DD3D009: humanized anti-CD14 antibody; VH SEQ ID NO: 33, VL SEQ ID NO: 35 (antibody, V domains shown)
VH: B1 VH with V2L, Y27G, T30S
VL: B4 VL
B8: D6DD3D011: humanized anti-CD14 antibody; VH SEQ ID NO: 41, VL SEQ ID NO: 43 (antibody, V domains shown)
VH: B1 VH with E16Q
VL: B4 VL
B9: D6DD3D013: humanized anti-CD14 antibody; VH SEQ ID NO: 49, VL SEQ ID NO: 51 (antibody, V domains shown)
VH: B1 VH with Y27G, T30S
VL: B2 VL
B10: D6DD3D003: humanized anti-CD14 antibody; VH SEQ ID NO: 9, VL SEQ ID NO: 11 (antibody, V domains shown)
VH: B1 VH with Y27G, T30S
VL: B1 VL
B11: D6DD3D004: humanized anti-CD14 antibody; VH SEQ ID NO: 13, VL SEQ ID NO: 15 (antibody, V domains shown)
VH: B1 VH with V2L, Y27G, T30S
VL: B1 VL
B12: D6DD3D010: humanized anti-CD14 antibody; VH SEQ ID NO: 37, VL SEQ ID NO: 39 (antibody, V domains shown)
VH: B1 VH
VL: B4 VL
B13: D6DD3D007: humanized anti-CD14 antibody; VH SEQ ID NO: 25, VL SEQ ID NO: 27 (antibody, V domains shown)
VH: B1 VH with E16Q, Y27G, T30S, P41H
VL: B4 VL
B14: D6DD3D002: humanized anti-CD14 antibody; VH SEQ ID NO: 5, VL SEQ ID NO: 7 (antibody, V domains shown)
VH: B1 VH with E16Q, Y27G, T30S, P41H
VL: B1 VL
B15: D6DD3D012: humanized anti-CD14 antibody; VH SEQ ID NO: 45, VL SEQ ID NO: 47 (antibody, V domains shown)
VH: B1 VH with E16Q, Y27G, T30S, P41H
VL: B2 VL

Target: T1, recombinant human CD14 (B294801, histidine tagged)
Experiment: Biacore 8K kinetic and affinity test of humanized antibodies (Example 8)
Assay type: binding
Conditions: Biacore 8K, KD=koff/kon, analyte B294801 0.78125-25 nM, capture 1 μg/mL
Protocol: Experimental reagents and consumables included Protein A chip (Cytiva, 29127556). Main instruments and equipment included Biacore 8K (Cytiva), shaker (Taicang Huamei), ELISA system (Molecular Devices), centrifuge (Baiyang), ultrapure water system (Millipore), and thermostatic incubator (BLUE PARD).
The antigen used for the binding affinity measurements is B294801. This antigen is a recombinant human CD14 antigen that is histidine tagged and has a molecular weight of 36 kDa. B294801 was purchased from Shanghai BaiYing Biotechnology Co., Ltd (name: Recombinant Human CD14/His Protein; Batch number 20200518A22). D6DD3D001 is a mouse antibody, and D6DD3D002-D6DD3D0016 are humanized antibodies. The antibodies are recombinant, human (hFc Tag). Selected parameters of the experimental samples are shown in Table 8-1, with MW referring to molecular weight in kiloDaltons (kDa).
The Biacore 8K platform was used to test the kinetic and affinity properties of the antibody. The operation was carried out according to the system instructions and indications.
The equilibrium dissociation constant (KD) reflects the affinity of the antibody to the target, with a smaller value indicating a stronger affinity. KD (in units of molarity) is determined by the ratio of the dissociation rate constant (koff) and the association rate constant (kon), that is, KD=Koff/kon.
15 humanized antibodies (numbered D6DD3D002-D6DD3D0016) and 1 mouse antibody (number D6DD3D001) were tested. For the experiments, the analyte solution comprises the B294801 antigen with an analyte concentration of 0.78125 nM, 1.5625 nM, 3.125 nM, 6.25 nM, 12.5 nM, and 25 nM. The capture concentration was 1 μg/mL. In Table 8-3, the change factor is the ratio of the equilibrium dissociation constant KD of the humanized to mouse antibody, and reflects the change in affinity after humanization.

| Kd [nM] | Molecule |
| --- | --- |
| 0.529 | B1 |
| 0.672 | B2 |
| 0.532 | B3 |
| 1.57 | B4 |
| 1.8 | B5 |
| 0.602 | B6 |
| 1.89 | B7 |
| 0.639 | B8 |
| 1.61 | B9 |
| 1.62 | B10 |
| 1.99 | B11 |
| 0.555 | B12 |

Same assay, conditions: Biacore 8K, analyte B294801 0.78125-25 nM, capture 1 μg/mL

| koff (1:1 binding) [s⁻¹] | kon (1:1 binding) [M⁻¹ s⁻¹] | Molecule |
| --- | --- | --- |
| 0.000798 | 1.51e+06 | B1 |
| 0.000904 | 1.35e+06 | B2 |
| 0.000843 | 1.59e+06 | B3 |
| 0.00329 | 2.09e+06 | B4 |
| 0.00342 | 2.11e+06 | B13 |
| 0.00318 | 1.77e+06 | B5 |
| 0.000862 | 1.43e+06 | B6 |
| 0.00379 | 2.01e+06 | B7 |
| 0.00109 | 1.71e+06 | B8 |
| 0.00292 | 1.69e+06 | B14 |
| 0.00282 | 1.76e+06 | B9 |
| 0.00295 | 1.82e+06 | B10 |
| 0.00293 | 1.64e+06 | B15 |
| 0.00326 | 1.64e+06 | B11 |
| 0.00105 | 1.9e+06 | B12 |

Same assay, conditions: Biacore; B294801 antigen

| Molecule | affinity compared with the mouse antibody D6DD3D001 |
| --- | --- |
| B1 | approximately equivalent to the affinity of the antibody D6DD3D001 before humanization |
| B3 | approximately equivalent to the affinity of the antibody D6DD3D001 before humanization |
| B12 | approximately equivalent to the affinity of the antibody D6DD3D001 before humanization |

Same assay, conditions: relative to mouse antibody D6DD3D001

| Change Factor (ratio of KD of the humanized to mouse antibody) | Molecule |
| --- | --- |
| 1.09 | B1 |
| 1.39 | B2 |
| 1.10 | B3 |
| 3.24 | B4 |
| 3.71 | B5 |
| 1.24 | B6 |
| 3.90 | B7 |
| 1.32 | B8 |
| 3.32 | B9 |
| 3.34 | B10 |
| 4.10 | B11 |
| 1.14 | B12 |
